Laboratory results reported in US20230002478A1 (published 2023).

Key:
SARS-CoV-2 S1 = SARS-CoV-2 S1 (SARS-CoV-2, UniProt P0DTC2 16-685); experiment: SPR
SARS-CoV-2 S Trimer = SARS-CoV-2 S Trimer (SARS-CoV-2, UniProt P0DTC2 16-1213); experiment: SPR

B1: antibody 339-031 (Fc fusion)
chain: EVQLVESGGGLVQPGGSLRLSCAASGSTFSINAMGWFRQAPGKEREFVAGITSSGGYTNYADSVKGRFTISADNSKNTAYLQMNSLKPEDTAVYYCAADGVPEYSDYASGPVWGQGTLVTVSS
Kd (SARS-CoV-2 S1): 0.006 nM
Kd (SARS-CoV-2 S Trimer): < 0.014 nM

B2: antibody 202-03 (Fc fusion)
chain: EVQLVESGGGLVQPGGSLRLSCAASGFTFSPSWMGWFRQAPGKEREFVATINEYGGRNYADSVKGRFTISADNSKNTAYLQMNSLKPEDTAVYYCARVDRDFDYWGQGTLVTVSS
Kd (SARS-CoV-2 S1): 0.011 nM
Kd (SARS-CoV-2 S Trimer): 0.299 nM
